The text below walks through data of patent US6703362 (CYTOGEN, dated 2004).

T1: hPEPT1 receptor domain (human PEPT1, amino acid residues 391-571), His-tag fusion protein (human, UniProt P46059 391-571)
T1 construct: purified under denaturing conditions; also called recombinant hPEPT1; not shown: poly-histidine tag (pET vector) at the NH2-terminal end
T1 sequence: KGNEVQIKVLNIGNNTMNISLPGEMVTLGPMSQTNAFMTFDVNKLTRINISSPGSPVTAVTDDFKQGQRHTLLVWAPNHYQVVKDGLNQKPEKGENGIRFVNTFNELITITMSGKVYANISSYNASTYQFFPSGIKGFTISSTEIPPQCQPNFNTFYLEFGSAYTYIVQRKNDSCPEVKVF

B1: PAX43 (peptide)
peptide: RWCEKHKFTAARCSAGAGFERDASRPPQPAHRDNTNRNAAETVESCLAKPHTENSFTNVWKDDKTLDRYANYEGCLWNATGVVVCTGDETQCYGTWVPIGLAIPENEGGGSEGGGSEGGGSEGGGTKPPEYGDTPIPGYTYINPLDGTYPPGTEQNPANPNPSLEESQPLNTFMFQNNRFRNRQGALTVYTGTVTQGTDPVKTYYQYTPVSSKAMYDAYWNGKFRDCAFHSGFNEDPFVCEYQGQSSDLPQPPVNAGGGSGGGSGGGSEGGGSEGGGSEGGGSEGGGSGGGSGSGDFDYEKMANANKGAMTENADENALQSDAKGKLDSVATDYGAAIDGFIGDVSGLANGNGATGDFAGSNSQMAQVGDGDNSPLMNNFRQYLPSLPQSVECRPFVFSAGKPYEFSIDCDKINLFRGVFAFLLYVATFMYVFSTFANILRNKES
notes: Assayed as M13 phage clone displaying the insert
B2: PAX40 (peptide)
peptide: RASTQGGRGVAPEFGASVLGRGCGSATYYTNSTSCKDAMGHNYSAETVESCLAKPHTENSFTNVWKDDKTLDRYANYEGCLWNATGVVVCTGDETQCYGTWVPIGLAIPENEGGGSEGGGSEGGGSEGGGTKPPEYGDTPIPGYTYINPLDGTYPPGTEQNPANPNPSLEESQPLNTFMFQNNRFRNRQGALTVYTGTVTQGTDPVKTYYQYTPVSSKAMYDAYWNGKFRDCAFHSGFNEDPFVCEYQGQSSDLPQPPVNAGGGSGGGSGGGSEGGGSEGGGSEGGGSEGGGSGGGSGSGDFDYEKMANANKGAMTENADENALQSDAKGKLDSVATDYGAAIDGFIGDVSGLANGNGATGDFAGSNSQMAQVGDGDNSPLMNNFRQYLPSLPQSVECRPFVFSAGKPYEFSIDCDKINLFRGVFAFLLYVATFMYVFSTFANILRNKES
notes: as for B1
B3: 5PAX3 (peptide)
peptide: RPKNVADAYSSQDGAAAEETSHASNAARKSPKHKPLRRPAETVESCLAKPHTENSFTNVWKDDKTLDRYANYEGCLWNATGVVVCTGDETQCYGTWVPIGLAIPENEGGGSEGGGSEGGGSEGGGTKPPEYGDTPIPGYTYINPLDGTYPPGTEQNPANPNPSLEESQPLNTFMFQNNRFRNRQGALTVYTGTVTQGTDPVKTYYQYTPVSSKAMYDAYWNGKFRDCAFHSGFNEDPFVCEYQGQSSDLPQPPVNAGGGSGGGSGGGSEGGGSEGGGSEGGGSEGGGSGGGSGSGDFDYEKMANANKGAMTENADENALQSDAKGKLDSVATDYGAAIDGFIGDVSGLANGNGATGDFAGSNSQMAQVGDGDNSPLMNNFRQYLPSLPQSVECRPFVFSAGKPYEFSIDCDKINLFRGVFAFLLYVATFMYVFSTFANILRNKES
notes: as for B1
B4: PAX35 (peptide)
peptide: RSITDGGINEVDLSSVSNVLENANSHRAYRKHRPTLKRPAETVESCLAKPHTENSFTNVWKDDKTLDRYANYEGCLWNATGVVVCTGDETQCYGTWVPIGLAIPENEGGGSEGGGSEGGGSEGGGTKPPEYGDTPIPGYTYINPLDGTYPPGTEQNPANPNPSLEESQPLNTFMFQNNRFRNRQGALTVYTGTVTQGTDPVKTYYQYTPVSSKAMYDAYWNGKFRDCAFHSGFNEDPFVCEYQGQSSDLPQPPVNAGGGSGGGSGGGSEGGGSEGGGSEGGGSEGGGSGGGSGSGDFDYEKMANANKGAMTENADENALQSDAKGKLDSVATDYGAAIDGFIGDVSGLANGNGATGDFAGSNSQMAQVGDGDNSPLMNNFRQYLPSLPQSVECRPFVFSAGKPYEFSIDCDKINLFRGVFAFLLYVATFMYVFSTFANILRNKES
notes: as for B1
B5: PAX18 (peptide)
peptide: SFLRFQSPRFEDYSRTISRLRNATNPSNVSDAHNNRALAAETVESCLAKPHTENSFTNVWKDDKTLDRYANYEGCLWNATGVVVCTGDETQCYGTWVPIGLAIPENEGGGSEGGGSEGGGSEGGGTKPPEYGDTPIPGYTYINPLDGTYPPGTEQNPANPNPSLEESQPLNTFMFQNNRFRNRQGALTVYTGTVTQGTDPVKTYYQYTPVSSKAMYDAYWNGKFRDCAFHSGFNEDPFVCEYQGQSSDLPQPPVNAGGGSGGGSGGGSEGGGSEGGGSEGGGSEGGGSGGGSGSGDFDYEKMANANKGAMTENADENALQSDAKGKLDSVATDYGAAIDGFIGDVSGLANGNGATGDFAGSNSQMAQVGDGDNSPLMNNFRQYLPSLPQSVECRPFVFSAGKPYEFSIDCDKINLFRGVFAFLLYVATFMYVFSTFANILRNKES
notes: as for B1
B6: PAX17 (peptide)
peptide: SQVDSFRNSFRWYEPSRALCHGCGKRDTSTTRIHNSPSDSYPTRAETVESCLAKPHTENSFTNVWKDDKTLDRYANYEGCLWNATGVVVCTGDETQCYGTWVPIGLAIPENEGGGSEGGGSEGGGSEGGGTKPPEYGDTPIPGYTYINPLDGTYPPGTEQNPANPNPSLEESQPLNTFMFQNNRFRNRQGALTVYTGTVTQGTDPVKTYYQYTPVSSKAMYDAYWNGKFRDCAFHSGFNEDPFVCEYQGQSSDLPQPPVNAGGGSGGGSGGGSEGGGSEGGGSEGGGSEGGGSGGGSGSGDFDYEKMANANKGAMTENADENALQSDAKGKLDSVATDYGAAIDGFIGDVSGLANGNGATGDFAGSNSQMAQVGDGDNSPLMNNFRQYLPSLPQSVECRPFVFSAGKPYEFSIDCDKINLFRGVFAFLLYVATFMYVFSTFANILRNKES
notes: as for B1
B7: PAX38 (peptide)
peptide: SSKVSSPRDPTVPRKGGNVDYGCGHRSSARMPTSALSSITKCYTAETVESCLAKPHTENSFTNVWKDDKTLDRYANYEGCLWNATGVVVCTGDETQCYGTWVPIGLAIPENEGGGSEGGGSEGGGSEGGGTKPPEYGDTPIPGYTYINPLDGTYPPGTEQNPANPNPSLEESQPLNTFMFQNNRFRNRQGALTVYTGTVTQGTDPVKTYYQYTPVSSKAMYDAYWNGKFRDCAFHSGFNEDPFVCEYQGQSSDLPQPPVNAGGGSGGGSGGGSEGGGSEGGGSEGGGSEGGGSGGGSGSGDFDYEKMANANKGAMTENADENALQSDAKGKLDSVATDYGAAIDGFIGDVSGLANGNGATGDFAGSNSQMAQVGDGDNSPLMNNFRQYLPSLPQSVECRPFVFSAGKPYEFSIDCDKINLFRGVFAFLLYVATFMYVFSTFANILRNKES
notes: as for B1
B8: PAX45 (peptide)
peptide: SFQVYPDHGLERHALDGTGPLYAMPGRWIRARPQNRDRQAETVESCLAKPHTENSFTNVWKDDKTLDRYANYEGCLWNATGVVVCTGDETQCYGTWVPIGLAIPENEGGGSEGGGSEGGGSEGGGTKPPEYGDTPIPGYTYINPLDGTYPPGTEQNPANPNPSLEESQPLNTFMFQNNRFRNRQGALTVYTGTVTQGTDPVKTYYQYTPVSSKAMYDAYWNGKFRDCAFHSGFNEDPFVCEYQGQSSDLPQPPVNAGGGSGGGSGGGSEGGGSEGGGSEGGGSEGGGSGGGSGSGDFDYEKMANANKGAMTENADENALQSDAKGKLDSVATDYGAAIDGFIGDVSGLANGNGATGDFAGSNSQMAQVGDGDNSPLMNNFRQYLPSLPQSVECRPFVFSAGKPYEFSIDCDKINLFRGVFAFLLYVATFMYVFSTFANILRNKES
notes: as for B1
B9: 5PAX7 (peptide)
peptide: RWGWERSPSDYDSDMDLGARRYATRTHRAPPRVLKAPLPAETVESCLAKPHTENSFTNVWKDDKTLDRYANYEGCLWNATGVVVCTGDETQCYGTWVPIGLAIPENEGGGSEGGGSEGGGSEGGGTKPPEYGDTPIPGYTYINPLDGTYPPGTEQNPANPNPSLEESQPLNTFMFQNNRFRNRQGALTVYTGTVTQGTDPVKTYYQYTPVSSKAMYDAYWNGKFRDCAFHSGFNEDPFVCEYQGQSSDLPQPPVNAGGGSGGGSGGGSEGGGSEGGGSEGGGSEGGGSGGGSGSGDFDYEKMANANKGAMTENADENALQSDAKGKLDSVATDYGAAIDGFIGDVSGLANGNGATGDFAGSNSQMAQVGDGDNSPLMNNFRQYLPSLPQSVECRPFVFSAGKPYEFSIDCDKINLFRGVFAFLLYVATFMYVFSTFANILRNKES
notes: as for B1
B10: PAX46 (peptide)
peptide: SRCTDNEQCPDTGTRSRSVSNARYFSSRLLKTHAPHRPAETVESCLAKPHTENSFTNVWKDDKTLDRYANYEGCLWNATGVVVCTGDETQCYGTWVPIGLAIPENEGGGSEGGGSEGGGSEGGGTKPPEYGDTPIPGYTYINPLDGTYPPGTEQNPANPNPSLEESQPLNTFMFQNNRFRNRQGALTVYTGTVTQGTDPVKTYYQYTPVSSKAMYDAYWNGKFRDCAFHSGFNEDPFVCEYQGQSSDLPQPPVNAGGGSGGGSGGGSEGGGSEGGGSEGGGSEGGGSGGGSGSGDFDYEKMANANKGAMTENADENALQSDAKGKLDSVATDYGAAIDGFIGDVSGLANGNGATGDFAGSNSQMAQVGDGDNSPLMNNFRQYLPSLPQSVECRPFVFSAGKPYEFSIDCDKINLFRGVFAFLLYVATFMYVFSTFANILRNKES
notes: as for B1
B11: 5PAX12 (peptide)
peptide: RGWKCEGSQAAYGDKDIGRSRGCGSITKNNTNHAHPSHGAVAKIAETVESCLAKPHTENSFTNVWKDDKTLDRYANYEGCLWNATGVVVCTGDETQCYGTWVPIGLAIPENEGGGSEGGGSEGGGSEGGGTKPPEYGDTPIPGYTYINPLDGTYPPGTEQNPANPNPSLEESQPLNTFMFQNNRFRNRQGALTVYTGTVTQGTDPVKTYYQYTPVSSKAMYDAYWNGKFRDCAFHSGFNEDPFVCEYQGQSSDLPQPPVNAGGGSGGGSGGGSEGGGSEGGGSEGGGSEGGGSGGGSGSGDFDYEKMANANKGAMTENADENALQSDAKGKLDSVATDYGAAIDGFIGDVSGLANGNGATGDFAGSNSQMAQVGDGDNSPLMNNFRQYLPSLPQSVECRPFVFSAGKPYEFSIDCDKINLFRGVFAFLLYVATFMYVFSTFANILRNKES
notes: as for B1

The target in the assay is T1, hPEPT1 receptor domain (human PEPT1, …). The experiment in a line: phage ELISA, plate coated with hPEPT1 domain. Here is the method:
6.6. Receptor ELISA Procedure 96 well plates were coated overnight with GIT receptor, BSA and, optionally, IDE (insulin degrading enzyme, an irrelevant His-fusion protein)or hTF. The plates were blocked for one hour with 0.5% BSA-PBS. After clarification, the amplified phage were diluted 1:100 in […] plus 0.05% Tween 20 in PBS and added to the plates. Following incubation of the plates on a rotator for 1 to 2 hours, the plates were washed 5 times with 1% BSA plus 0.05% Tween 20 in PBS. […] After the plates were washed 5 times, as described above, TMB substrate was added to the wells. The plates were read at 650 nm absorbance.
Take B1: the OD is 0.345 OD.

As to B2, the OD was 0.461 OD.

As for B3, the OD is 0.173 OD.

B4 had an OD of 0.474 OD.

Regarding B5, the OD was found to be 0.416 OD.

B6: the OD was 0.514 OD.

Molecule B7 yielded an OD of 0.292 OD.

As to B8, the OD amounted to 0.419 OD.

Consider B9, for which the OD is 0.171 OD.

The molecule B10 gave an OD of 0.429 OD.

Molecule B11 displayed an OD of 0.227 OD.
